Patent US20070049518A1, “Novel method of treatment of inflammatory skin conditions” (priority 2005, published 2007)
Like-named read-outs stand apart in the source and are kept apart here.

Legend:
[1] = system: single chain pro-uPA; test: Activation of pro-uPA by aureolysin; type: biochemical; conditions: Expt. 1, 2.5 h
[2] = target: T1, proenzyme of human rheumatoid synovial fibroblast collagenase (proMMP-1) (Homo sapiens, UniProt P03956); type: biochemical; conditions: for α1-chain ¾ - length product: aureolysin 3 μg/ml and/or 1 mM APMA
T1 construct: the proenzyme of human rheumatoid synovial fibroblast collagenase (Calbiochem); purchased Calbiochem; host or cells: human rheumatoid synovial fibroblasts (as the product's name says)
T1 sequence (P03956 20-469): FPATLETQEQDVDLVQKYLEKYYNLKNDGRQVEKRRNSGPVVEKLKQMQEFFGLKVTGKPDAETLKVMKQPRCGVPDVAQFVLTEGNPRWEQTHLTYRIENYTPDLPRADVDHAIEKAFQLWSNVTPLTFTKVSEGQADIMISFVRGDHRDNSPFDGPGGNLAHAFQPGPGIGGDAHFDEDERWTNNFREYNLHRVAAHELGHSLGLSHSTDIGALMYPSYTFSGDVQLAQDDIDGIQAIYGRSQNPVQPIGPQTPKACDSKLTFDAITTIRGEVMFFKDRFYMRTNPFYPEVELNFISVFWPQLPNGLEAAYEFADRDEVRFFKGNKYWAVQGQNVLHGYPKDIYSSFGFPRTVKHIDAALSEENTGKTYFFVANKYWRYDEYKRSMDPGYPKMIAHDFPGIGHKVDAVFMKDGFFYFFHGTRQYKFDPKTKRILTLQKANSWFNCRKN
Procedure: (§1) Collagenase activity in the samples was then determined by incubation at 25° C. in TCNB containing 0.1 μg/ml (pro)MMP-1 and 0.16 mg/ml porcine type I collagen (MD Biosciences).

[3] = system: proenzyme of human rheumatoid synovial fibroblast collagenase (proMMP-1); type: biochemical; conditions: aureolysin alone±APMA
Procedure: as §1

[4] = system: Human skin epidermal keratinocytes; test: Keratinocyte activation, IL-8 production; type: cell-based; conditions: 48 hours, aureolysin 50 μg/ml
Description: Activated keratinocytes produce IL-8, a proinflammatory chemokine. Many bacterial products cause the activation of keratinocytes. Aureolysin may be evaluated for its effects on IL-8 production by keratinocytes. Human skin epidermal keratinocytes (TCS Cellworks) are maintained as per instructions. Proliferating cultures are trypsinised, harvested, treated with a trypsin inhibitor and resuspended in growth medium at approximately 50,000 cells/well, to provide confluent monolayers in 96 well plates. Cells are incubated overnight at 37° C. at 5% CO2 to allow recovery, the spent medium aspirated from the wells and replaced with fresh growth medium. The cells are incubated at 37° C. at 5% CO2 for a further 24 or 48 hours with aureolysin or buffer control.
The supernatants are removed from each well and the concentration of IL-8 is determined using a human IL-8 ELISA development kit from R&D systems (Catalog Number: DY208) using the manufacturers instructions.
In these experiments, the cells are incubated at 37° C. at 5% CO2 for 48 hours with aureolysin or buffer control. Poly IC and lipoteichoic acid (LTA), which stimulate IL-8 production in keratinocytes were used as positive controls.

**Q.** Which “Urokinase activity after pro-uPA activation” value (from here on “Urokinase activity”) ([1]; aureolysin 0.1 μg/ml, MES pH 5.6) does the source give for “aureolysin: metalloprotease (EC 3.4.24.29) secreted by Staphylococcus aureus, single chain of 301 amino acids” here?
**A.** 2.31 A405/0.5 h/μg

**Q.** What about the “Urokinase activity” value ([1]; aureolysin 0.1 μg/ml, Tris-HCl pH 7.5) of the same substance?
**A.** 0.65 A405/0.5 h/μg

**Q.** And the “Urokinase activity” value ([1]; aureolysin 0.3 μg/ml, MES pH 5.6)?
**A.** 3.76 A405/0.5 h/μg

**Q.** What about the “Urokinase activity” value ([1]; aureolysin 0.3 μg/ml, Tris-HCl pH 7.5) of the same substance?
**A.** 1.43 A405/0.5 h/μg

**Q.** What about the “Urokinase activity” value ([1]; aureolysin 1 μg/ml, MES pH 5.6) of the same substance?
**A.** 4.68 A405/0.5 h/μg

**Q.** And the “Urokinase activity” value ([1]; aureolysin 1 μg/ml, Tris-HCl pH 7.5)?
**A.** 3.29 A405/0.5 h/μg

**Q.** What about the “α1-chain ¾ - length product” value ([2]; Time 0 h) of the same substance?
**A.** 0 arbitrary units

**Q.** What about the “α1-chain ¾ - length product” value ([2]; Time 0.5 h) of the same substance?
**A.** 1709 arbitrary units

**Q.** And the “α1-chain ¾ - length product” value ([2]; Time 1 h)?
**A.** 3726 arbitrary units

**Q.** And the “α1-chain ¾ - length product” value ([2]; Time 1.5 h)?
**A.** 5115 arbitrary units

**Q.** What about the “α1-chain ¾ - length product” value ([2]; Time 2 h) of the same substance?
**A.** 8742 arbitrary units

**Q.** And the “α1-chain ¾ - length product” value ([2]; Time 3 h)?
**A.** 12718 arbitrary units

**Q.** What about the “α1-chain ¾ - length product” value ([2]; Time 4 h) of the same substance?
**A.** 16882 arbitrary units

**Q.** What about the “α1-chain ¾ - length product” value ([2]; Time 5 h) of the same substance?
**A.** 17558 arbitrary units

**Q.** What about the “α1-chain ¾ - length product” value ([2]; Time 6 h) of the same substance?
**A.** 19436 arbitrary units

**Q.** What about the “Relative rate of collagen cleavage” value ([2]; relative to untreated control (MMP-1 alone = 1)) of the same substance?
**A.** 3

**Q.** What about the “collagenase activity of control incubations without proMMP-1 (in words)” value [3] of the same substance?
**A.** no activity

**Q.** And the “IL-8 ± SE” value [4]?
**A.** 687 pg/mL

**Q.** And the “IL-8 ± SE” value ([4]; listed as Aureolysin)?
**A.** 687 ± 0.7 pg/mL
